Test results published in patent US20260146097A1.
Numbering of substitutions follows the chain as printed. In names and notes the source's numbering stands. Each block holds one molecule with its values, some of them ahead of it.

What was measured:
[1] = target: IL2Rs (IL2Rgamma/IL2Rbeta) on preactivated human PBMCs / CD8+ T cells (human) (UniProt P14784); experiment: cell-based or functional assay
[2] = target: T1, human IL2Rbeta-Avi protein (R&D Systems) (human) (UniProt P14784); experiment: ELISA: variant captured by anti-human IgG-Fc, human IL2Rbeta-Avi, streptavidin-HRP
T1 sequence (looked up): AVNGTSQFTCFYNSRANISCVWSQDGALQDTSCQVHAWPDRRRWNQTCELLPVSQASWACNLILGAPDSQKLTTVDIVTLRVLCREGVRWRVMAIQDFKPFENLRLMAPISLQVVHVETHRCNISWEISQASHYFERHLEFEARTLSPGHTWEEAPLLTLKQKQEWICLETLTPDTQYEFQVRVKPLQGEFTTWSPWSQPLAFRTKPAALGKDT

pSTAT5 EMAX (Mean Fluorescence Intensity) (Mean Fluorescence Intensity) [1]: 25000
Molecule: IgG Control (antibody)

EC50 [2]: 0.65 µg/mL
B1: Wild-type anti-IL2Rbeta VH in the multi-specific format (anti-LAG3 and a single anti-IL2Rgamma/anti-IL2Rbeta unit) (protein, part only; not given: rest of multi-specific format, part only)
VH: EVQLVQSGAEVKKPGACVKISCKVSGYTFTDYYMHWVQRAPGKGLEWIGLVDPEDGETIYAEKFQGRVTITADTSTDTAYMELCSLRSEDTAVYYCATDFVKLDFSLSFQHWGQGTLVTVSS

EC50 [2]: 0.21 µg/mL
B2: Anti-IL2Rbeta VH modification D31S in the multi-specific format (protein, part only; not given: Rest of multi-specific format, not shown: another chain or arm of the molecule; a dimerising Fc or GST; small tags and cut ends)
VH: B1 VH with D31S

EC50 [2]: 0.24 µg/mL
B3: Anti-IL2Rbeta VH modification Y32F in the multi-specific format (protein, part only; not given: Rest of multi-specific format, not shown: another chain or arm of the molecule; a dimerising Fc or GST; large carriers; small tags and cut ends)
VH: B1 VH with Y32F

EC50 [2]: 0.24 µg/mL
B4: Anti-IL2Rbeta VH modification Y33F in the multi-specific format (protein, part only; not given: Rest of multi-specific format, not shown: another chain or arm of the molecule; a dimerising Fc or GST; large carriers; small tags and cut ends)
VH: B1 VH with Y33F

EC50 [2]: 0.24 µg/mL
B5: Anti-IL2Rbeta VH modification D31Y in the multi-specific format (protein, part only; not given: Rest of multi-specific format, not shown: another chain or arm of the molecule; a dimerising Fc or GST; small tags and cut ends)
VH: B1 VH with D31Y

EC50 [2]: 0.3 µg/mL
B6: Anti-IL2Rbeta VH modification E53S in the multi-specific format (protein, part only; not given: Rest of multi-specific format, not shown: another chain or arm of the molecule; a dimerising Fc or GST; large carriers; small tags and cut ends)
VH: B1 VH with E54S

EC50 [2]: 0.4 µg/mL
B7: Anti-IL2Rbeta VH modification D31K in the multi-specific format (protein, part only; not given: Rest of multi-specific format, not shown: another chain or arm of the molecule; a dimerising Fc or GST; small tags and cut ends)
VH: B1 VH with D31K

EC50 [2]: 0.13 µg/mL
B8: Anti-IL2Rbeta VH modification D31R in the multi-specific format (protein, part only; not given: Rest of multi-specific format, not shown: another chain or arm of the molecule; a dimerising Fc or GST; small tags and cut ends)
VH: B1 VH with D31R

EC50 [2]: 0.3 µg/mL
B9: Anti-IL2Rbeta VH modification E53I in the multi-specific format (protein, part only; not given: Rest of multi-specific format, not shown: another chain or arm of the molecule; a dimerising Fc or GST; large carriers; small tags and cut ends)
VH: B1 VH with E54I
